B1: Mineralocorticoid receptor, residues 600 to 675; numbered along this chain, P08235 (parent)
chain: SKICLVCGDEASGCHYGVVTCGSCKVFFKRAVEGQHNYLCAGRNDCIIDKIRRKNCPACRLQKCLQAGMNLGARKS

Variants of: B1
Assay: abundance fitness (aPCA) (normalised: wild type 0, dead -1); higher = more abundant; growth selection in yeast, the domain comes from the species named
Settings: Homo sapiens

Abundance fitness of substitutions, site by site:
I3: D -0.062, A -0.157, T -0.164, L -0.239, M -0.192, W -0.315, P -0.453, E -0.146, N -0.022, Y -0.027, K -0.196, G -0.162, H -0.11, V -0.166, S -0.128, R -0.225, Q -0.152
C14: W -0.049, Y -0.069, F -0.146, A -0.027, R -0.062, N -0.047, E -0.012, D -0.011, H -0.003, M 0.015, P -0.072, T -0.09, Q 0.013, G -0.077, V -0.008, L -0.103
V6: T -0.148, L -0.375, C -0.228, M -0.416, Q -0.803, S -0.512, I 0.008, Y -0.489, K -0.83, A -0.051, P -0.704, D -0.765, G -0.726, N -0.706, R -0.971
A11: Q -0.037, I -0.354, S -0.044, C -0.123, M -0.135, D -0.134, G -0.043, R -0.089, Y -0.245, E -0.02, T -0.063, W -0.22, L -0.16, H -0.13, V -0.222, K -0.101, P -0.001, F -0.194, N 0.031
S1: I -0.035, H 0.002, W -0.144, P -0.13, D -0.406, M -0.06, Y 0, F -0.048, K -0.123, L -0.099, V 0.018, R -0.099, A -0.136, G -0.087
L5: E -0.071, D -0.168, H -0.239, P -0.075, Y -0.076, A -0.05, S -0.075, T -0.037, Q 0.05, F -0.027, W -0.106, N -0.068, V -0.209, K 0.057, M -0.133, C -0.069, R -0.091, I -0.089
G8: V -0.621, W -0.27, Q -0.095, D -0.085, A 0.058, C -0.233, Y -0.248, M -0.062, R -0.043, I -0.605, N -0.235, H -0.273, L -0.08, T -0.079, S -0.057, E -0.075, K -0.019, F -0.202
H15: Y -0.057, S -0.075, M -0.059, Q -0.12, W 0.029, N -0.092, P -0.066, T -0.11, F 0.023, V -0.103, L -0.096, E -0.033, R -0.136, C -0.152, A -0.062, I -0.131, D -0.119, K 0.032
G13: L -0.073, V -0.092, A -0.111, Q 0.032, M -0.035, S -0.033, N 0.043, T 0.016, K 0.019, P -0.157, R 0.028, Y -0.259, C -0.407, I -0.146, H -0.016, F -0.047, W -0.268
G17: L -0.142, C -0.049, F -0.121, K -0.054, I -0.24, M -0.055, N -0.126, P -0.175, S -0.044, H -0.208, A -0.108, R -0.046, E -0.007, Q -0.065, D -0.031

Reference: the Human Domainome abundance scans (Beltran et al. 2025)
